Data as given in patent US20220213193A1 (BROWN UNIVERSITY, published 2022).

Target: T1, recombinant human (rh) CHI3L1 (human, UniProt P36222 22-383)
T1 construct: also called rhCHI311; human CHI3L1
Test: competitive ELISA on recombinant antigen

T1 sequence (P36222 22-383 limits assumed): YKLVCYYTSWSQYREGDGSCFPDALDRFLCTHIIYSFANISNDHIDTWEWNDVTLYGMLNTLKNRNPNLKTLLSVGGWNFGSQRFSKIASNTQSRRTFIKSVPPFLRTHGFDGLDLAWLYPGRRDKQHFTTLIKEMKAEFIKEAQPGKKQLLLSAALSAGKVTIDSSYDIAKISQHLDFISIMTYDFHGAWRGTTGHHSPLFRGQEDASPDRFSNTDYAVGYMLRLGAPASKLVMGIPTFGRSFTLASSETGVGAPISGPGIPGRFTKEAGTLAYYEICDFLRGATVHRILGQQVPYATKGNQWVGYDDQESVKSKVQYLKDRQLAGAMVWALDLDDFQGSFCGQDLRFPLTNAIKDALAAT

B1: anti-human CHI3L1 antibody FRG (antibody, V domains shown)
VH: QIQLVQSGPELKKPGETVKISCKASGYTFTNYGMNWVKQAPGKGLKWMGWINTYTGEPTYADDFKGRFAFSLETSASTAYLQINNLRNEDMSTYFCARLGYGKFYVMDYWGQGTSVTVSS
VL: DVVMTQTPLSLPVSLGDQASISCRSSQSLVHSNGNTYLHWYLQKPGQSPKLLIYKVSNRFSGVPDRFSGSGSGTDFTLKISRVEAEDLGVYFCSQSTHVTWTFGGGTKLEIK
notes: also called anti-CHI3L1; α-CHI3L1
B1 was tested, and the Kd was about 1 nM.
